For assay [1], the target named is LC8 dynein light chain (DYNLL2), full-length, His6-tagged (UniProt Q96FJ2). In words: SPR; ProteOn XPR36, HTG chip; His6-LC8 immobilised on Ni2+-NTA at three densities (1200, 900, 600 RU); peptides injected at five concentrations, 60 ul/min, 400 s, dissociation 600 s; 20 mM Hepes, 150 mM NaCl, 0.05% Tween-20, 0.1 mM TCEP, 50 uM EDTA, pH 7.5; 1:1 Langmuir global fit; Kd is the mean of the kinetic and the equilibrium analysis, SD from three individual Kd values. For orientation: SPR reads the build-up and loss of mass on a sensor chip optically.

Assay [2] has the same target. As to the kind of experiment: SPR; ProteOn XPR36, HTG chip; His6-LC8 immobilised on Ni2+-NTA surface at three densities (1200, 900, 600 RU); peptides injected at five concentrations, 60 ul/min; 20 mM Hepes, 150 mM NaCl, 0.05% Tween-20, 0.1 mM TCEP, 50 uM EDTA, pH 7.5; 1:1 Langmuir model; Kd is the mean of the kinetic and the equilibrium analysis; apparent.

Chain of LC8 dynein light chain (DYNLL2), full-length, His6-tagged (Q96FJ2 whole entry): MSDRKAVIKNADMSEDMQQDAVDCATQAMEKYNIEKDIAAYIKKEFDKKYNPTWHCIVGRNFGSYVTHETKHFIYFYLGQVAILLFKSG

“MPHOSPH9 LC8 binding motif peptide (start 909)” yielded a Kd in assay [1] of 1200 nM. In the case of “MPHOSPH9 LC8 binding motif peptide (motif start 909)”, the Kd in assay [2] amounted to 1200 nM.

These data come from article PMC5746249.
